{
  "source": "patent US20250326861A1",
  "binders": {"B1": {"name": "Lanadelumab (full length anti-pKal antibody) (antibody, IgG1, V domains shown)", "VH": "EVQLLESGGGLVQPGGSLRLSCAASGFTFSHYIMMWVRQAPGKGLEWVSGIYSSGGITVYADSVKGRFTISRDNSKNTLYLQMNSLRAEDTAVYYCAYRRIGVPRRDEFDIWGQGTMVTVSS", "VL": "DIQMTQSPSTLSASVGDRVTITCRASQSISSWLAWYQQKPGKAPKLLIYKASTLESGVPSRFSGSGSGTEFTLTISSLQPDDFATYYCQQYNTYWTFGQGTKVEIK"}},
  "conditions_in_all_cases": "remark: other sources report otherwise",
  "key": {"[1]": {"target": "T1, Human kallikrein (analyte in the Biacore assay) (human), P03952", "T1 sequence (P03952 20-638 limits assumed)": "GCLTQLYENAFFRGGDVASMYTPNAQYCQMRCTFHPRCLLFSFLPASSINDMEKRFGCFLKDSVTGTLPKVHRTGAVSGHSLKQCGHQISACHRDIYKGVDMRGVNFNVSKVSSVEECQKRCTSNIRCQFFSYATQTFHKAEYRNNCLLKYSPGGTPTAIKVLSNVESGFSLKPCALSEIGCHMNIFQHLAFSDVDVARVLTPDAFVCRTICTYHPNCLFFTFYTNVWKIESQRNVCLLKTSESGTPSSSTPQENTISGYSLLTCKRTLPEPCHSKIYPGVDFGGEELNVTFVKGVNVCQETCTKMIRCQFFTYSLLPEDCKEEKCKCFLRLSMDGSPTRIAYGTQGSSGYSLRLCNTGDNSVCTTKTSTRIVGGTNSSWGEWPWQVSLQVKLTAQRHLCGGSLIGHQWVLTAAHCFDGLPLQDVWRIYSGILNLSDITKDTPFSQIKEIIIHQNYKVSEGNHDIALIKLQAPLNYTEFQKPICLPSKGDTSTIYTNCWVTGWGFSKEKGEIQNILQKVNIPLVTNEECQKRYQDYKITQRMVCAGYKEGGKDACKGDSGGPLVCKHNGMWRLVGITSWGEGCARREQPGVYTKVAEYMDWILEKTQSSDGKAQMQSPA", "test": "SPR, Biacore T200, 25 C, HBS-EP+; antibody captured on the chip through Fc, human kallikrein (activated, purified from human plasma) as analyte"}, "[2]": {"target": "T1, Human kallikrein (analyte in the …)", "test": "SPR, Biacore T200, 25 C, HBS-EP+; antibody captured through Fc, human kallikrein as analyte; full length antibody"}, "[3]": {"target": "T1, Human kallikrein (analyte in the …)", "test": "SPR, Biacore T200, 25 C, HBS-EP+; antibody captured on the chip through Fc, human kallikrein (activated, purified from human plasma) as analyte", "remark": "listed apart in the source"}},
  "note": "“And” between values parts separate entries of the source, which are not always exact repeats. Equal values may be shown once.",
  "data": [
    {"binder": "B1", "values": [
      {"measurement": "koff", "setting": "[1]", "value": 0.000347, "unit": "s⁻¹"},
      {"measurement": "kon", "setting": "[1]", "value": 199000, "unit": "M⁻¹ s⁻¹"},
      {"measurement": "Kd", "setting": "[2]", "value": 1.74, "unit": "nM"},
      {"measurement": "Kd", "setting": "[3]", "value": "6.73 nM and 5.76 nM and 5.54 nM"},
      {"measurement": "koff", "setting": "[3]", "value": "0.000315 s⁻¹ and 0.000297 s⁻¹ and 0.000291 s⁻¹"},
      {"measurement": "kon", "setting": "[3]", "value": "51500 M⁻¹ s⁻¹ and 52600 M⁻¹ s⁻¹ and 46700 M⁻¹ s⁻¹"}
    ]}
  ]
}
